B1: Recombinant Mdm36, His6-T7-Mdm36 (natural protein)
chain: MDENGTVKPGYELKGLNSGNSRSNMDKDPIVSKFHRAGLNDSADEEDTDINGNRNTSWITSMISEEKRKVEGKSMLNDEEDLHLSKATLNKCDALVKILADIIKLEFVIHQSWYIRSLHKSVLIQFEVETSGGNKNSAGDSGDDDDDNHNGNLDDSFYKDLSLKCIKKCEKSSLALESLSRDIDQIRDFIMSNTIEDNRVDRLLQNSMTLLLECWIYSMKRLRRLRMKIAGIFVRSKLLLIDHELVTIWHFLQEQNEHETVNNENELKLAETIKSYRAFIKIFIQQLEDSESGSPSSSLFEECLHVFLDIESMYNSLNLNWLLNENKALQERLLSPSSTSENDHTNNLPVIDETKEIEDISSFVNSIVDASMLTHDLTPINSSDSDNLSNGEIDRLDGRRLSSSTSDMSLMMQRTSLQKQLPSLLTAFNNARRLEQELQNACKVNDNKHSTKDTDSNIRRNEHAMSSSVSSIISQNSTLASPSPPMSSSFISTAPSQSSSRMSTLPLSPSSSLLESQSQTLKNNMSQWLNQSRSGLNGTKLIPTNHIGFHSNVLNTLYGIGGGPVSKSYKSNQPSSQNT

Tests used:
[1] = molecular target: B1; test: co-sedimentation
SEC-MALS = molecular target: the molecule itself; test: SEC-MALS

Row | Binder | binding result [1] | stoichiometry N (SEC-MALS)
1 | Recombinant Num1CC (amino acids 97-294), His6-T7-Num1CC (domain or fragment) MNFTLELSENLLVECRKLQSSNEAKNEQIKSLKQIKESLSDKIEELTNQKKSFMKELDSTKDLNWDLESKLTNLSMECRQLKELKKKTEKSWNDEKESLKLLKTDLEILTLTKNGMENDLSSQKLHYDKEISELKERILDLNNENDRLLISVSDLTSEINSLQSNRTERIKIQKQLDDAKASISSLKRKVQKKYYQKQ | binds | 2
2 | B1 |  | 2
3 | Recombinant Num1CC^3E (K121E + R262E + R265E), His6-T7-Num1CC^3E (domain or fragment) MNFTLELSENLLVECRKLQSSNEAENEQIKSLKQIKESLSDKIEELTNQKKSFMKELDSTKDLNWDLESKLTNLSMECRQLKELKKKTEKSWNDEKESLKLLKTDLEILTLTKNGMENDLSSQKLHYDKEISELKERILDLNNENDRLLISVSDLTSEINSLQSNETEEIKIQKQLDDAKASISSLKRKVQKKYYQKQ | binds | 

Reference: article PMC4896055 (The Journal of Cell Biology, 2016)
